Measured values taken from patent publication US20250388666A1 (BRIGHAM AND WOMEN S HOSPITAL, published 2025).
Positions count from the first letter of the chain named. Numbers in names are those of the source.

T1: CEACAM1 (Sino Biological) (human, UniProt P13688 35-428, limits assumed)
T1 construct: may be the same as CEACAM1-HIS; also called hCEACAM1; biotinylated soluble CEACAM1
T1 sequence: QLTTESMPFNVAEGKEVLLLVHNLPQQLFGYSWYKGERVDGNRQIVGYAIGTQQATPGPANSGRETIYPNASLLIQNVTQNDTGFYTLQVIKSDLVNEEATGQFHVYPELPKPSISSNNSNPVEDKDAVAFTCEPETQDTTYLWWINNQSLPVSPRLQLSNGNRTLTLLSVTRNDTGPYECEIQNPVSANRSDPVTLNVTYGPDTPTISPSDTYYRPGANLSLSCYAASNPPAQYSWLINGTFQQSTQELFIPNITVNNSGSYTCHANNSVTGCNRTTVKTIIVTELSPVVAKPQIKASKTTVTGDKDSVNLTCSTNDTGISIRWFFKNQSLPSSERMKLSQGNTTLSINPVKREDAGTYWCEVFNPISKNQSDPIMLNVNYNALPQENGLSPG

B1: He4/L17 (antibody, IgG4, V domains shown)
VH: EVQLLESGGGLVQPGGSLRLSCAASGFSFSDYYLYWVRQAPGKGLEWVATISVGGGQTSYADSVKGRFTISRDNSKNTLYLQMNSLRAEDTAMYYCTRALYYGPAWFAYWGQGTLVTVSS
VL: DIVMTQSPDSLAVSLGERATINCKSSQSLLNSANQKNYLAWYQQKPGQPPKLLIYFASTRESGVPDRFSGSGSGTDFTLTISSLQAEDVAVYYCQSHYPYPYTFGGGTKVEIK
notes: IgG4 S241P, kappa
B2: He9/L18 (antibody, IgG4, V domains shown)
VH: B1 VH with T97A, L100M
VL: B1 VL with Y98F, Y102F
notes: IgG4 S241P, kappa
B3: He4/L20 (antibody, IgG4, V domains shown)
VH: B1 VH
VL: B1 VL with Y98F, Y102L
notes: IgG4 S241P, kappa
B4: He13/L1 (antibody, IgG4, V domains shown)
VH: B1 VH with A99G, A105S, F107L
VL: B1 VL with Y100F, P101Y
notes: IgG4 S241P, kappa
B5: He6/L18 (antibody, IgG4, V domains shown)
VH: B1 VH with T97A, L100R, Y101T
VL: B1 VL with Y98F, Y102F
notes: IgG4 S241P, kappa
B6: He6/L3 (antibody, IgG4, V domains shown)
VH: B1 VH with T97A, L100R, Y101T
VL: B1 VL with Y98F, Y100F, Y102F
notes: IgG4 S241P, kappa
B7: He9/L16 (antibody, IgG4, V domains shown)
VH: B1 VH with T97A, L100M
VL: B1 VL with Y102F
notes: IgG4 S241P, kappa
B8: He4/L19 (antibody, IgG4, V domains shown)
VH: B1 VH
VL: B1 VL with Y98I, P99Y, Y100P, P101N, Y102F
notes: IgG4 S241P, kappa
B9: He6/L2 (antibody, IgG4, V domains shown)
VH: B1 VH with T97A, L100R, Y101T
VL: B1 VL with Y100F
notes: IgG4 S241P, kappa
B10: He6/L16 (antibody, IgG4, V domains shown)
VH: B1 VH with T97A, L100R, Y101T
VL: B1 VL with Y102F
notes: IgG4 S241P, kappa
B11: He4/Parent VL (antibody, IgG4, V domains shown)
VH: B1 VH
VL: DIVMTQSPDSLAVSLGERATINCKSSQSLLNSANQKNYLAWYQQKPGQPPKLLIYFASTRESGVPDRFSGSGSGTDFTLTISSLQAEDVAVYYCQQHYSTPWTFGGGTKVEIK
notes: IgG4 S241P, kappa
B12: He13/L2 (antibody, IgG4, V domains shown)
VH: B1 VH with A99G, A105S, F107L
VL: B1 VL with Y100F
notes: IgG4 S241P, kappa
B13: He6/L4 #1 (antibody, IgG4, V domains shown)
VH: B1 VH with T97A, L100R, Y101T
VL: B1 VL with Y98F, P101Y
notes: IgG4 S241P, kappa
B14: He13/L4#2 (antibody, IgG4, V domains shown)
VH: B1 VH with A99G, A105S, F107L
VL: B1 VL
notes: IgG4 S241P, kappa
B15: He6/L6 (antibody, IgG4, V domains shown)
VH: B1 VH with T97A, L100R, Y101T
VL: B1 VL with Y100F, P101S, Y102F
notes: IgG4 S241P, kappa
B16: He6/L17 (antibody, IgG4, V domains shown)
VH: B1 VH with T97A, L100R, Y101T
VL: B1 VL
notes: IgG4 S241P, kappa
B17: He6/L20 (antibody, IgG4, V domains shown)
VH: B1 VH with T97A, L100R, Y101T
VL: B1 VL with Y98F, Y102L
notes: IgG4 S241P, kappa
B18: He9/L20 (antibody, IgG4, V domains shown)
VH: B1 VH with T97A, L100M
VL: B1 VL with Y98F, Y102L
notes: IgG4 S241P, kappa
B19: He9/L4 #1 (antibody, IgG4, V domains shown)
VH: B1 VH with T97A, L100M
VL: B1 VL with Y98F, P101Y
notes: IgG4 S241P, kappa
B20: He9/Parent VL (antibody, IgG4, V domains shown)
VH: B1 VH with T97A, L100M
VL: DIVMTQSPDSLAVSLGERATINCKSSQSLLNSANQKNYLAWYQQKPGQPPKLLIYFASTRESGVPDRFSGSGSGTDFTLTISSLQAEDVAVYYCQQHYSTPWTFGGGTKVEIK
notes: IgG4 S241P, kappa
B21: He13/L3 (antibody, IgG4, V domains shown)
VH: B1 VH with A99G, A105S, F107L
VL: B1 VL with Y98F, Y100F, Y102F
notes: IgG4 S241P, kappa
B22: He4/L18 (antibody, IgG4, V domains shown)
VH: B1 VH
VL: B1 VL with Y98F, Y102F
notes: IgG4 S241P, kappa
B23: He6/Parent VL (antibody, IgG4, V domains shown)
VH: B1 VH with T97A, L100R, Y101T
VL: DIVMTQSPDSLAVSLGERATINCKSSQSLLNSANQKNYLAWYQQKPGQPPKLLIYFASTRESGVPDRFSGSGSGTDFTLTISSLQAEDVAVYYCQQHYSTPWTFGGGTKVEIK
notes: IgG4 S241P, kappa
B24: He6/L19 (antibody, IgG4, V domains shown)
VH: B1 VH with T97A, L100R, Y101T
VL: B1 VL with Y98I, P99Y, Y100P, P101N, Y102F
notes: IgG4 S241P, kappa
B25: He9/L5 (antibody, IgG4, V domains shown)
VH: B1 VH with T97A, L100M
VL: B1 VL with Y100F, P101A, Y102F
notes: IgG4 S241P, kappa
B26: He6/L5 (antibody, IgG4, V domains shown)
VH: B1 VH with T97A, L100R, Y101T
VL: B1 VL with Y100F, P101A, Y102F
notes: IgG4 S241P, kappa
B27: He6/L4#2 (antibody, IgG4, V domains shown)
VH: B1 VH with T97A, L100R, Y101T
VL: B1 VL
notes: IgG4 S241P, kappa
B28: He9/L1 (antibody, IgG4, V domains shown)
VH: B1 VH with T97A, L100M
VL: B1 VL with Y100F, P101Y
notes: IgG4 S241P, kappa
B29: He9/L19 (antibody, IgG4, V domains shown)
VH: B1 VH with T97A, L100M
VL: B1 VL with Y98I, P99Y, Y100P, P101N, Y102F
notes: IgG4 S241P, kappa
B30: He13/L4 #1 (antibody, IgG4, V domains shown)
VH: B1 VH with A99G, A105S, F107L
VL: B1 VL with Y98F, P101Y
notes: IgG4 S241P, kappa
B31: He9/L2 (antibody, IgG4, V domains shown)
VH: B1 VH with T97A, L100M
VL: B1 VL with Y100F
notes: IgG4 S241P, kappa
B32: He6/L1 (antibody, IgG4, V domains shown)
VH: B1 VH with T97A, L100R, Y101T
VL: B1 VL with Y100F, P101Y
notes: IgG4 S241P, kappa
B33: He13/L5 (antibody, IgG4, V domains shown)
VH: B1 VH with A99G, A105S, F107L
VL: B1 VL with Y100F, P101A, Y102F
notes: IgG4 S241P, kappa

Molecular target: T1, CEACAM1 (Sino Biological)
Assay: SPR single-cycle
Procedure: To assess the binding of the humanized affinity matured IgGs, single cycle kinetics analysis was performed on crude supernatants using a Biacore T200 running Biacore T200 Control Software V2.0.1 and Biacore T200 Evaluation Software V3.0 (Uppsala, Sweden). Antibodies were diluted in HBS-P+ (GE Healthcare) to a final concentration of […]. At the start of each cycle, antibodies were loaded onto Fc2, Fc3 and Fc4 of the Protein A chip (GE Healthcare). IgGs were captured at a flow rate of 10 μl/min to give an immobilization level (RL) of ˜100 RU (a level calculated to obtain an Rmax of ˜50-150 RU once the analyte is bound). The surface was then allowed to stabilize. Single cycle kinetics data was obtained with CEACAM1 as the analyte at a flow rate of […] to minimize any potential mass transfer effects. Multiple repeats with the parent (VH2 N56Q/Vκ4 S27(f)A) antibody were performed to check the stability of the surface and analyte over the kinetic cycles. The signal from the reference channel Fc1 (no antibody) was subtracted from that of Fc2, Fc3 and Fc4 to correct for differences in non-specific binding to the reference surface. A three point, two-fold dilution range from 25 nM to 100 nM CEACAM 1 without regeneration between each concentration was used. The signal from each antibody blank run (no CEACAM1) was subtracted to correct for differences in surface stability. The association phase for the three injections of increasing concentrations of CEACAM1 was monitored for 200 seconds each time and a single dissociation phase was measured for 300 seconds following the last injection of CEACAM1. Regeneration of the Protein A surface was conducted using two injections of 10 mM glycine-HCL pH 1.5 followed by a stabilization period of 240 seconds.

Binder | Kd [nM] | fold better than Parent (KD) [fold]
B1 | 62 | 2.55
B2 | 36 | 4.4
B3 | 90 | 1.77
B4 | 126 | 1.26
B5 | 83 | 1.92
B6 | 94 | 1.69
B7 | 32 | 5.05
B8 | 90 | 1.77
B9 | 104 | 1.53
B10 | 66 | 2.41
B11 | 155 | 1.03
B12 | 98 | 1.62
B13 | 155 | 1.03
B14 | 289 | 1.91
B15 | 89 | 1.78
B16 | 91 | 1.75
B17 | 89 | 1.79

Binder | Kd [nM] | fold better than Parent (KD) [fold]
B18 | 44 | 3.61
B19 | 78 | 2.05
B20 | 262 | 0.61
B21 | 108 | 1.47
B22 | 55 | 2.89
B23 | 125 | 1.27
B24 | 237 | 0.67
B25 | 44 | 3.61
B26 | 84 | 1.89
B27 | 146 | 3.78
B28 | 69 | 2.32
B29 | 193 | 0.82
B30 | 115 | 1.38
B31 | 70 | 2.27
B32 | 98 | 1.62
B33 | 95 | 1.68
